Laboratory results published in patent US8901081B2, “Uses of GRS proteins or fragments thereof” (SNU R&DB Foundation, priority 2008, dated 2014).

Columns and labels:
Type in all cases: cell-based
[1] = tested on: MAPKs (ERK, p38 MAPK, Jun N-terminal kinase) in HeLa cells; assay: Effect on MAPKs (immunoblotting of total and phosphorylated MAPKs)
Description: HeLa cells were cultured on a 6-well plate for 12 hours. After washing 2 times, the cells were allowed to stand in serum-starved DMEM for 3 hours. Then, the cells were cultured with GRS protein (150 nM) or TNF-α (15 ng/mL) for 10, 30, 60, 90 or 120 minutes, and then washed 2 times with cold phosphate buffer. The protein was extracted with 25 mM Tris-HCl (pH 7.4) lysis buffer containing 150 mM NaCl, 1 mM EDTA, 1 mM sodium orthovanadate, 20 mM sodium fluoride, 12 mM β-glycerophosphate, 10% glycerol, 1% Triton X-100 and protease inhibitor, separated by loading on 10% SDS-PAGE, and then transferred to polyvinylidene difluoride (PVDF) membrane (Millipore). Then, immunoblotting was performed using antibodies specific total MAPKs and phosphorylated MAPKs.

[2] = tested on: HeLa cells and RAW 264.7 cells; assay: Cell viability with GST-GRS fragments (MTT assay); conditions: GST-GRS fragments added to HeLa and RAW 264.7 cells; FIG. 15
Description: In order to investigate the domain of the GRS protein related to cytokine activity, four GRS fragments of SEQ ID NOs. 3 to 6 (FIGS. 13 and 14) were prepared and they were expressed with the GST fusion protein. […] Then, cell viability was examined.

[3] = tested on: H293 kidney cells, SH-SY5Y neural cells, macrophage RAW cells; assay: Anticancer activity by MTT assay, kidney, neural and immune cells; conditions: His-GRS protein 50, 100 or 150 nM, 24 hours; FIG. 6
Description: (§1) HeLa, A549, HCT+/− and H460 cancer cells, H293 kidney cells, SH-SY5Y neural cells, human skin fibroblast HSF cells, and macrophage RAW cells were placed on a 96-well plate, cultured for 18 hours, washed with serum-starved medium, treated with His-GRS protein (0, 50, 100 or 150 nM), heated His-GRS protein (150 nM) or 2 μg/mL Adriamycin in serum-starved medium (100 μL), cultured for 24 hours, treated with 5 mg/mL MTT (10 μL per each well), and then cultured for 2 hours. After decanting the supernatant using a syringe and treating with DMSO (100 μL per each well), the cells were cultured for 10 minutes and absorbance was measured at 570 nm using an ELISA reader.

[4] = tested on: BV2 and SH-SY5Y neural cells, macrophage RAW cells; assay: Anticancer activity by FACS (sub-G1 dead cells), neural and immune cells; conditions: GRS protein 100 nM; FIG. 5
Description: (§2) HeLa, A549, HCT+/− and HCT+/+ cancer cells, BV2 and SH-SY5Y neural cells, human skin fibroblast HSF cells, and macrophage RAW cells were placed on a 35-mm dish, and cultured for 18 hours. The cell culture was washed with serum-starved medium (1 mL), treated with GRS protein (0 or 100 nM), heated GRS protein (100 nM) or 1 μg/mL Adriamycin, and further treated with trypsin EDTA. The cells were isolated and centrifuged at a rate of 500 g for 10 minutes. After decanting the supernatant, the cells were resuspended in cold PBS (0.3 mL). After adding cold 100% EtOH (0.7 mL) and mixing for 5 seconds, the mixture was incubated at −20° C. overnight. The cell culture was centrifuged at a rate of 500 g at 4° C. for 10 minutes. After decanting the supernatant, adding cold PBS (1 mL) and mixing for 5 seconds, the mixture was centrifuged again at a rate of 500 g at 4° C. for 10 minutes. After decanting the supernatant, the cells were resuspended in P.I solution (500 μL) and incubated at room temperature for 20 minutes. Then, the number of dead cells was counted by FACS by measuring the quantity of DNA fragments resulting from apoptosis. The result is shown in FIG. 5 (The cells in sub-G1 phases were considered as dead cells).

[5] = tested on: caspase 3 in HCT+/− cancer cells; assay: Caspase 3 assay (Western blotting); conditions: His-GRS protein 50, 100 or 150 nM, 24 hours, FIG. 7
Description: HCT+/− cancer cells or macrophage RAW cells were placed on a 35-mm dish. 18 hours later, after washing with serum-starved medium, the cells were treated with His-GRS protein (0, 50 nM, 100 nM or 150 nM) or heated His-GRS protein (150 nM) in serum-starved medium (1 mL). After culturing for 24 hours, the cells were collected using a lifter. The cells were centrifuged at 3000 rpm for 5 minutes and, after decanting the supernatant, adding lysis buffer (200 μL) containing 0.5% Triton X-100, 2 mM EDTA, 10% glycerol, 150 mM NaCl, 25 mM Tris-HCl (pH 7.4) and protease inhibitor, and mixing at 4° C. for 30 minutes, the mixture was centrifuged at a rate of 12,000 rpm at 4° C. for 15 minutes and the protein was quantitated by the Bradford method. The collected protein was separated by loading on 15% SDS-PAGE and Western blotting was carried out using anti-caspase 3 and anti-tubulin antibodies.

[6] = tested on: HeLa and HCT+/− cancer cells, normal 293 cells and macrophage RAW cells; assay: Attachment of biotinylated GRS protein to cells (Western blotting with streptavidin-HRP); conditions: 0, 1, 2, 5 or 10 μg biotinylated GRS protein; FIG. 4
Description: HeLa and HCT+/− cancer cells, normal 293 cells and macrophage RAW cells were placed on a 35-mm dish, cultured for 18 hours, and then washed with serum-starved medium (1 mL). Then, after adding 0, 1, 2, 5 or 10 μg of biotinylated GRS protein, proteins were collected from the whole cell lysate in the same manner as in Example 1. Then, Western blotting was performed using streptavidin-HRP and anti-tubulin antibodies.

[7] = tested on: p38 kinase in HCT+/− cancer cells; assay: Apoptosis mechanism: p38/ERK Western blotting; conditions: 100 nM GRS protein, 0-120 minutes; FIG. 8
Description: HCT+/− cancer cells were placed on a […]. 18 hours later, after washing with serum-starved medium, the cells were treated with 100 nM GRS protein or 2 μg/mL lipopolysaccharide (LPS) in serum-starved medium (1 mL). After culturing for 0, 10, 30, 60, 90 or 120 minutes, the cells were collected using a lifter. The cells were centrifuged at 3,000 rpm for 5 minutes and, after decanting the supernatant, adding lysis buffer (200 μL) containing 0.5% Triton X-100, 2 mM EDTA, 10% glycerol, 150 mM NaCl, 25 mM Tris-HCl (pH 7.4) and protease inhibitor, and mixing at 4° C. for 30 minutes, the mixture was centrifuged at a rate of 12,000 rpm at 4° C. for 15 minutes and the protein was quantitated by the Bradford method. The collected protein was separated by loading on 10% SDS-PAGE and Western blotting was carried out using anti-p-p38, anti-p38, anti-p-ERK, anti-ERK and anti-tubulin antibodies.

[8] = tested on: HeLa, A549, HCT+/− and HCT+/+ cancer cells; assay: Anticancer activity by FACS (sub-G1 dead cells), cancer cells; conditions: GRS protein 100 nM, FIG. 5
Description: as §2

[9] = tested on: HeLa, A549, HCT+/− and H460 cancer cells; assay: Anticancer activity by MTT assay, cancer cells; conditions: His-GRS protein 50, 100 or 150 nM, 24 hours, FIG. 6
Description: as §1

[10] = tested on: Bax, Bcl-2 and cytochrome C in HeLa cells; assay: Intracellular level of Bax, Bcl-2 and cytochrome C (Western blotting); conditions: 150 nM GRS
Description: Also, in order to investigate whether the GRS-induced apoptosis is related with mitochondria, the intracellular level of Bax, Bcl-2 and cytochrome C was examined. First, HeLa cells were cultured with 150 nM GRS for a predetermined time. The cells were then collected, resuspended in 20 mM HEPES (pH 7.5) storage buffer containing 10 mM KCl, 1.5 mM MgCl2, 0.5 mM EDTA, 1 mM DTT and protease inhibitor (Calbiochem), allowed to stand on ice for 5 minutes, and then homogenized for 6 cycles. Then, after centrifuging at 10,000 g for 10 minutes, protein was separated from the supernatant using 12% SDS-PAGE and transferred to PVDF membrane. Then, Western blotting was performed using cytochrome C or anti-tubulin antibody. […] To be concluded, GRS has pro-apoptotic activity in the HeLa cells.

[11] = GRS protein 150 nM, 10-120 minutes, FIG. 9

TNF-α [reference compound] was tested, and the “phosphorylation of all the MAPKs” value ([1]; TNF-α 15 ng/mL, FIG. 10) was “increased in 30 minutes”.

B1: F4: 511st through 685th amino acids of the full-length GRS, including the C-terminal anticodon-binding domain (protein, listed as Homo sapiens)
chain: LYVEEVVPNVIEPSFGLGRIMYTVFEHTFHVREGDEQRTFFSFPAVVAPFKCSVLPLSQNQEFMPFVKELSEALTRHGVSHKVDDSSGSIGRRYARTDEIGVAFGVTIDFDTVNKTPHTATLRDRDSMRQIRAEISELPSIVQDLANGNITWADVEARYPLFEGQETGKKETIEE
modifications: DOMAIN (1)..(175) Fragment 4 (511-685aa)
For B1, the “pro-apoptotic cytokine activity (cell viability)” value [2] was “exhibited pro-apoptotic cytokine activity”.

B2: GRS protein: glycyl-tRNA synthetase (GRS) protein, amino acid sequence of SEQ ID NO. 1 (protein, listed as Homo sapiens)
chain: MDGAGAEEVLAPLRLAVRQQGDLVRKLKEDKAPQVDVDKAVAELKARKRVLEAKELALQPKDDIVDRAKMEDTLKRRFFYDQAFAIYGGVSGLYDFGPVGCALKNNIIQTWRQHFIQEEQILEIDCTMLTPEPVLKTSGHVDKFADFMVKDVKNGECFRADHLLKAHLQKLMSDKKCSVEKKSEMESVLAQLDNYGQQELADLFVNYNVKSPITGNDLSPPVSFNLMFKTFIGPGGNMPGYLRPETAQGIFLNFKRLLEFNQGKLPFAAAQIGNSFRNEISPRSGLIRVREFTMAEIEHFVDPSEKDHPKFQNVADLHLYLYSAKAQVSGQSARKMRLGDAVEQGVINNTVLGYFIGRIYLYLTKVGISPDKLRFRQHMENEMAHYACDCWDAESKTSYGWIEIVGCADRSCYDLSCHARATKVPLVAEKPLKEPKTVNVVQFEPSKGAIGKAYKKDAKLVMEYLAICDECYITEIEMLLNEKGEFTIETEGKTFQLTKDMINVKRFQKTLYVEEVVPNVIEPSFGLGRIMYTVFEHTFHVREGDEQRTFFSFPAVVAPFKCSVLPLSQNQEFMPFVKELSEALTRHGVSHKVDDSSGSIGRRYARTDEIGVAFGVTIDFDTVNKTPHTATLRDRDSMRQIRAEISELPSIVQDLANGNITWADVEARYPLFEGQETGKKETIEE
modifications: His tag; PEPTIDE (1)..(685) full length of GRS
With B2 the “effect on kidney, neural and immune cells (cell viability by MTT assay)” value [3] was “little effect”, the “effect on neural and immune cells (dead cells in sub-G1 counted by FACS)” value [4] was “little effect” and the “caspase 3 in active form” value [5] was “caspase 3 in active form was observed”. For the same molecule, the “attachment of GRS protein to the surface of cells” value [6] was “attached to the surface of other cells”, the “effect on p38 kinase-related mechanism” value [7] was “had an effect on the p38 kinase-related mechanism” and the “killing of cancer cells (dead cells in sub-G1 counted by FACS)” value [8] was “specifically killed”. The “killing of cancer cells (cell viability by MTT assay)” value [9] was “specifically killed”, the “intracellular level of Bax” value ([10]; FIG. 11) was “did not affect” and the “intracellular level of Bcl-2” value ([10]; FIG. 11) was “reduction”. For the same molecule, the “secretion of cytochrome C” value ([10]; FIG. 12) was “increased”, the “level of phosphorylated ERK” value [1, 11] was “increased with time” and the “level of phosphorylated p38 MAPK” value [1, 11] was “increased with time”.
